The text below walks through data of patent US20230226096A1 (Orna Therapeutics, Inc., priority 2020, published 2023).

The test system of this data set is HEK293 cells. In kind it is cell-based, human. The following applies: luminescence from secreted Gluc in supernatant 24 hours after transfection of HEK293 cells; circular RNA encoding Gluc with the named IRES (UTR truncated to 675 nt).

B1: Rabovirus C (nucleic acid)
DNA: CCGGGTATAACCCGGAGTTTTGGGGCAGGTCCAAGCCCCACATAGGAACATACGATCCACGGATCGTGTGTTCTTTTATGCTTTCTAACCTTACCCTTTGTAACCATTACGCTTTACGCCGCATGGTGTTTGGCGGCACCATGACGTGGACAAGAGGTTACGCCATTACGATATGTACCCTCCCCTTTTGGGGAGAGACCGACCAATTATGGTACAGTATCCAACTGTATTGTGGTCAAGTACTTCTGTTTCCCCGGTGATGCGGGATAGGCTGTACCCACGGCCAAAACCTGCTGATCCGTTACCCGACTCACATCTACGAGGAGGCTAGTAAAAGGCATGAAGTTCAAGAGTATGATCCAACCAGATCCCCACTGGTAAACTAGTGATGAGGGTTCCCGTTCCGAACATGGCAACATGTGGGTTCCCTGCGTTGGCACTAGGCCCCTTCCGAGGGGTGCTCTGAAGATGGATTGTTGATGAAGACCAATTTGTGCATGTGTTTATCCTCCGGCCCTCTGA
modifications: Rabovirus C
The molecule B1 yielded an Expression of 2.49E+06.

B2: Rabovirus A NYC-B10 (nucleic acid)
DNA: CCGACCCCACTGGTCGAAGGCCACTTGGCAATAAGACTGGTGGAACAAGGTCGCCTGTAGTTGATTGGAACCTTCTTTCTAATGACTTATGTCAGCGGTGCTACTCACACCGTAACTCTCCTACCCTATCCCCACGCTTGTGGAACTAGGAGGGGATGAGTGATTCAAGTAAGTACTGTCAGAATGGTGAAAATAATCTGATTCTGAAACGCTATGGATCCATCGAAAGATGGGGCTACACGCCTGCGGAACAACACATGGTAACATGTGCCCCAGGGGCCGAAAGCCACGGTGATAGGATCACCCGTGTAGTTTGAGATCATATCAATGTTCATAGTCTAGTAAGATGATTTGAAATCTAACTGGTCTGATGGCTAACTGCTTGTCTTATTGCGGCCTAAGGATGTCCTGCAGGTACCTTTAGAGAACCTTAAGAGACTATTGATCTGAGCAGGAGCCAAGGTGGTCTTTCCCAGCCTTGGTTAAAAAGCGTCTAAGCCGCGGCAGGGGGCGGGAGGCCCCCTTTCCTCCCAAACTATAATATAGATTGT
modifications: Rabovirus A
The molecule B2 yielded an Expression of 1.24E+06.

B3: Cadicivirus B (nucleic acid)
DNA: CACCAACCCTTGACCTGTAATGTCAGTGGACAGAGTGCTCCTCTGTTCCCGGTTACCGTGTTCCAGGACACGATTGTAATCCTGCGCCTCACCAGCGCTGCGTGCACGTCTGCATAAGGAAACGTGCCTTCCCCATGTCTCTATCAATTCTTTGGTGAGTGACCGCCCTAGTTGCTCATCCTATGGGATTCTTCTCTCATGGGTTCTTTGTGGCATGCGAATGTCACCTTAATTGGAGGTCTTTAATTAGATATCCTTTCTTCATCTTTGATATGAGTGTCGGAATTTGATTCCTAGTCTCTGCAAAACAACCCCACTTGATGAATTCAACTTTTCAACCGCACAAACATAATCAGGTTTTTAAATTGAATGTTTCTAAATTCTAAATTTAGTTTATTTAAGTAGTTTGCCATCTTGACTCGATGTAAAATTGTCATACAAGTCTTCTTTTCTTTTCTTTACACTTTGAAGTTTGCACTTAGCAGTCGTTCTGCACAGCTTTCGAGTTTTGTTTGATCGACATCGCAACTTCCACCCACCTCTCTTTTTCTAGTGTTGAATGCGGCTAATCCTAACCCGAGAGCAATAAACCCAGGTTTATTGTCGTAACGCGCAAGTCTTGGACGGAACCGACTATACACACACCTCTTTACCCTTTAGTACACCCTTGGTACG
modifications: Cadicivirus B
In turn, B3 returned an Expression of 2.10E+05.

B4: Parabovirus C (nucleic acid)
DNA: GATGTATCCCCATCCCCCAGTGTGTATGCCATACTGCATAGCTCGCCTATGCCCTATGGATTCACAACCCTTTCATATACCCTCCCTACCCAACCCCGTAACCACATGCTTTACTCCGCTTGGGGTTTTGCGGCCCCATGTTGTGACGAAATGGCTACGCAATCAATGCGGCTAATGGGGCCTGCCGCTTTTAAGTGGCCCCAGTTAGAAGTTTATGCACACCCGCCCATTAGGAGGCCACCAGCCAGGTGGTCAGAGGGCAAGCACTTCTGTTTCCCCGGTGAAGTTTGATAAGCTGTGCCCACGGCTGAAGCAGACAGATCCGTTACCCGCCTCACTACTACGAGACGGCTAGTAGTGTGTAATATCCGAATTTCATTGATCCGGGTGTTCCCCCCACCCAGAAACGTGTGATGAGGAGCGGCACCCCTCCTATGGCAACATAGGGCCTCTCCTGCGCTGGCACACGGGCTCTATGAGCATGAAATCAGGAGAAAGTCACACGAAGACCTTATTGTGCTAGTGTTGATTCCTCCGCCCCCCTGAATGCGGCTAATCCCAACTCCGGAGCGCCCGCTGGCAAACCCGCCAGAAGAGCGTCGTAATGCGTAAGTCTGGAGCGGAACCGACTACTTTGGGTGTGGCGTGTTTCCTTTATTTCCTTTGTATTTGTAT
modifications: Parabovirus C
With B4, the Expression stood at 1.83E+07.

B5: Felipivirus 127F (nucleic acid, listed as Felipivirus sp.)
DNA: GATGTCGGATGACGGCTGGCCACCGGGGAAAAACGGCAAATGTGCACCACCTCTGCAACCCACGCCGACCACGTTTAACCATGGCGTTAGTAGGAGTGGACCACTGCAGTGGGCTCTGGTGTGCGACAGTCAGTGGTAGAGTAGACAGTCCTGACTGGGCAATGGGACCGCGTTGCGTATCCCTAGGTGGCATCGAGATTCCTCTGCTACCCACCAGCGTGGACTCCTATGGGGGGGGCCCCATAGGCTAGGTCTATACTGCCTGATAGGGTCGCGGCTGGTCGACCACTGACTGTATAACCAGTTGTAACTCACT
Molecule B5 displayed an Expression of 8.92E+06.

B6: Parabovirus A3 (nucleic acid, listed as Parabovirus sp.)
DNA: ACCGTTACGCACCACTCAGTTGGTGTTTGGTGGCACCAATGATGGAACAAAAGGCTACACCACTTGGGCTACGGCCCGCGCCACCTTGTGGCGCAAAGACATTAGAAGAATAGCATACCGCCCACTAGGGCCCTGCAGCCAGCAGGGTAACGGGCAAGCACTTCTGTCTCCCCGGTAGAACGGTATAGGCTGTACCCACGGCCGAAAACTGAACTATCGTTACCCGACTCCGTACTTCGCAAAGCTTAGTAGGAAACTGGAAAGTTCGAGTTATTGACCCGGAGTGTTCCCCCCACTCCAGAAACGCGTGATGAGGGTTGCCACCCCGACCATGGCGACATGGTGGGCATCCCTGCGCTGGCACGCGGCCTCTAAGAGGATAACTCGCTCCTACTGGTAACCGAAGAGCCCCGTGAGCTACGGTTTATTCCTCCGCCTCCCTGAATGCGGCTAATCCTAACCCATGAGCAGTTGCCATAGATCCATATGGTGGACTGTCGTAACGCGTAAGTTGTGGGCGGAACCGACTACTTTGGGATGGCGTGTTTCCTTGTTTTCTCCATTTGTTGTTGTATGGTGACAAGTTATAGATCTCGATCTATAGCGTTTCTTGAGAGATTTCCAAACATTTATTCAAGTCGTACAATTCTTGTGTTTAAGCAGTACAGTGTAAGG
B6: the Expression stood at 2.44E+08.

B7: Boosepivirus A (nucleic acid)
DNA: TTGAAAGACCTCGGCATATATCGTTGTCACAACGGTATATGTCGAGATCTTTCTCCCCACCCCCTCCAATTCCCTTTTCCCCCTCTTGCAACTTAGAAGTTTGTACACACAGGGCAATAGGATACGTGATCCAGCCAGGACACGTGAGCTCAAGCACTTCTGTTTCCCCGTCCCCTTCACGTACTACGGGAATGTTAGTAATTTGTGTGCACTTTAGTAAGGTTGATCCGGGATTAACCCCAAATCCCAGAAACTGGTGATGAGCGTTACCACCCCCGCCGGGCGACCGGAAGGTTTCGCTGCGTTGGCACCAGGGCTTCGGCACCAGAAAAAGGTAAAGCAAATGAAGGCGCTACTGTGCTACGAGAAGTTTCCTCCAGGCCCCTGAATGCGGCTAATCCTAACCAGTGATCCACCGGTGCAAAACCATGTACTAGGTGGTCGTAACGCGCAAGTCGCTGGCGGAACCGACTACTTTGGGTGTCCTGTGTTTCCATATTTTATTTTATTCAATTTTATGGTGACAAGAGTAAAGAGATACAGATTTGCAGCC
modifications: Boosepivirus A
Molecule B7 showed an Expression of 7.07E+07.

B8: Parabovirus B (nucleic acid)
DNA: AACCCATAATCCATTGTCCATCAATGTTTTATGGGGGGGACCCTTTCTCCCCTCCCCCTCCAAATACCTTTTACCCCTCTGTAACCAAGAGTGTGCAAAATCTATTTACTAGCCCAGAATTGCGGCTTCTGGGGAGGTTTATTCCTCATGCCTAACAAGATGTTACGCAAACTCCGGGCTACGGCCCTGGGCTTTTGCCCTAAAGATTTAGAAGTTTACACTATCGTCCAACAGGAGGACAACAAACCAGTTGTTCTAAGGACAAGCACTTCTGTTTCCCCGGTGAGACTGGATAGACTGTACCCACGGTTGAAACTGGTTGATCCGTTACCCGACTCACTACTTCGAGAAGATTAGTAGGAAACTGTGAAACTGATTCCATTGATCCGGATACTTTCCCCGTATCCAGAAACTACTGATGAGGGTTGACTTCCCGACTACGGCGACGTAGTGTCATCCCTGCGCTGGCAGTAGGCCTCTTTGAGGATGGAAGATGTGGATCGGTAACCGAAGGTCCTATTGAGCTAGTGTTTATACCTCCGGCCTCCTGAATGCGGCTAATCCTAACCCATGATCTAGTGCTCACAAACCAGTGAGTAGCTAGTCGTAACGCGTAAGTCGTGGGCGGAACCGACTACTTTGGAGTGACCGTGTTTCCTATTTTACTTTTGTTTG
modifications: Parabovirus B
B8 registered an Expression of 7.85E+06.

B9: Simian Sapelovirus 2 (nucleic acid, listed as Sapelovirus sp.)
DNA: TTTTAACTTGTTATGACATTCAAGGAAAAAATGTCTTTTTCATTATGGGACTGACCTGTTTATGAACATGAGCAGCGGCACTGCTCCACGGGCTATCCGTGTAAGAAATATTGATTATTCTTATGGATCATGATTTCAGGGTTGGCCGCCCAGTCTAAAAGGCAATTGTGGTAAGCTATGTAAGTAGTTGGCTGTTGAAAGGAGCCAAGTACATCCTAGGTCTACGCTGTGCGGGCCGAAGTAAGACTTGGAACAACTCTGAGTAGGCAGTTTTTCTCTTTAGCCCAACACGACCGCATACTGAAGAGCTAGAGGCACTTTGGGGCAAAGGTAAAAGCATTGCTTAGACCGAATGTTCAATGAGACCTTGACGAGTGCTGTCACAGTGTCCCCTGATGGCAGTATGGCGCATGCTCTTGGCATTACCCATATGTGTATCTATAGGGGGGGGGCCCCCTATACTTAGTCTAGTGCTACCTGACAGGGCCGCGGCTGGTCGTCGGTGTGTGGTATAACCAGTAGTAATCCCCCATGGATTGCTTTAACTCCCCCTCCTCCCTCAACAAAACTTTCTCTAAG
For B9, the Expression came out at 4.24E+07.
